The values below come from a protein production outcome set (Wang et al. 2014).

The nature of this data set: label from the status in PepcDB records.

As to “MAFIESWAKRTWLVPPQMQLYVDYKIKVTEILTNYTSIEEIHSYSIDESFLDITESLNFFYPDIRNRYEQMNLITLDLQREILDKLGLYVTVGMGDNPLLAKLAMDNYAKHNQNMRALIRYLEHHHHHH”, the protein production entry is given as “failed”.

For “MAFIIDLLLLCCSAFMSSCEVAYFSLKPIDLQNIRERNHSSDIALSNLLDNSNQLLATILIGNNVINVAIVILSNYAIEQTFVFSSPIIGFLIQTILLTTVLLLFGEILPKVYARKNPLQYSRFSAAAMSVIYKILSPFSKLLVKSTGIVTRGISKKKYDMSVDELSKAVALTTTEGEPEEKEMINEIIKFYNKTACEIMVPRIDIVDVDLSWPFRKMLDFVVSSGYSRLPVSEGSEDNIKGVIYIKDLIPHMDKGDEFDWHPLIRKAYFVPENKRIDDLLEEFRANKVHVSIVVDEFGGTCGLITMEDILEEIVGEITDEYDEEELPFKVLGDGSYLFEGKTSLSDVRHYLDLPENAFGELGDEVDTLSGLFLEIKQELPHVGDTAVYEPFRFQVTQMDKRRIIEIKIFPFERTWEVE”, the protein production entry was “failed”.

With “MAFITGAARGQGRSHAVRLAAEGADIIACDICAPVSASVTYAPASPEDLDETARLVEDQGRKALTRVLDVRDDAALRELVADGMEQFGRLDVVVANAGVLSWGRVWELTDEQWDTVIGVNLTGTWRTLRATVPAMIEAGNGGSIVVVSSSAGLKATPGNGHYSASKHGLTALTNTLAIELGEYGIRVNSIHPYSVETPMIEPEAMMEIFARHPSFVHSFPPMPVQPNGFMTADEVADVVAWLAGDGSGTLTGTQIPVDKGALKY”, the protein production entry is recorded as “failed”.

On to “MAFLDKIKSAVIAEWHTHKILPSLTAAQAILESGWGKYAPHNALFGIKADSSWTGKSFNTKTQEEYQPGIVTDIVDRFRAYDSWEDSIADHGQFLVDNPRYKAVIGEADYKKACHAIKDAGYATASGYAELLIQLIEENNLQEWDAEAIKNKEEQMISSQCREVIEFFINLANAGVGVDKDSFAGWQCADVPCYAAKHWFGVDLWGNAIDLLDSAAAVGWEVHRMPTDANPRTGAFFVQSVPCHQFGHTGIVIEDSDGYTMRTVEQNIDGNPDALYVGAPARFNTRDFTGVLGWFYPPYQGDIVTQPVSTEPQNSDTIVETPKTGTFTLDVAEINIRRWPSLASEVVGSYKQGDTVSFDSEGYANGYYWISYVGGLGMRNYLAIGQTDKDGNRISIWGKLN”, for which the protein production entry is on record as “failed”.

With “MAFSDDLPPPPRVNDHVKTRRNRKRRTIKTKQLEELISTATRAAHVARDKGFYIVSPEAIQCVEILRHMRTLPLNARLITKTDGLRVLLFLSKNGNPKIRSESKAVIDHWKSILHTKVH”, the protein production entry is given as “failed”.

For “MAFSGSQAPYLSPAVPFSGTIQGGLQDGLQITVNGTVLSSSGTRFAVNFQTGFSGNDIAFHFNPRFEDGGYVVCNTRQNGSWGPEERKTHMPFQKGMPFDLCFLVQSSDFKVMVNGILFVQYFHRVPFHRVDTISVNGSVQLSYISFQNPRTVPVQPAFSTVPFSQPVCFPPRPRGRRQKPPGVWPANPAPITQTVIHTVQSAPGQMFSTPAIPPMMYPHPAYPMPFITTILGGLYPSKSILLSGTVLPSAQRFHINLCSGNHIAFHLNPRFDENAVVRNTQIDNSWGSEERSLPRKMPFVRGQSFSVWILCEAHCLKVAVDGQHLFEYYHRLRNLPTINRLEVGGDIQLTHVQT”, the protein production entry is on record as “not failed”.

As to “MAFSTDDTLWREFLQVWPLERLREMTLAEYTTAGDKDCFVYWLEFRLVDYGSIAGGSAFKFAIFSRKETGAREGDTSLAYDDRYGWYRRFGTSPEEAFQTIRGHVVAVAEAARDGRLDEIDNSPLGAAYRWKIAFHYQPLRNPSTPCVYVRKPLLHFLGLSAADTTTPQSELYQALARLRQADESIFVFSERLWKDWVADTPFVVKLSEGAIKHGYLPVNLISAPFPETMYGGKTPNEAADVAHFRTDTGLEFDTDLRVSSPGSARLRHRLGGYFEDIGAAAGDLITLTQDGDGTYLLSSKLAVHAIGPTASAATITARASVKEAAAVRPPLNQILFGPPGTGKTYEAIEKALEILDPSFLLQLGDDESNERRRALKRRYDELAKEGLVQFVTFHQSFSYENFVEGLSASSDPDTKQVRYEVEDGVFKELCESARTRLVRRSDDAPLELSGRRIWKLSLGDSITEGHIFEECMEKGLALMGFGNNADFSQCQSREDIQKMFAASGEPLSLGAYPITAIKTFVCQMKLGDLIVVSEGNLKFRAIGEITGDYQLLPRDSDTYSQARPVRWLRGYKPALPYGALMENRFSQMTVYELRAGSIDHDKFRELLKSECIATGADRPHVLIIDEINRGNVSRIFGELITLIEPSKRSGAAEALEVLLPYSKDPFSVPDNVYLIGTMNTADRSLAGLDIALRRRFDFVEMAPRPDKLTGVKVAEIDISAVLETMNRRIEVLLDREHRLGHAYFMSLENSNDLSRLSNIFRQQIIPLLQEYFFEDWQRIAWILNDHRKDERFRFIVPAPYSVDSLFGDTGQVAQDSKAWRMNEEAFHKPQSYLGIVGDGKV”, the protein production entry is on record as “failed”.

Turning to “MAFTPFPPRQPTASARLPLTLMTLDDWALATITGADSEKYMQGQVTADVSQMAEDQHLLAAHCDAKGKMWSNLRLFRDGDGFAWIERRSVREPQLTELKKYAVFSKVTIAPDDERVLLGVAGFQARAALANLFSELPSKEKQVVKEGATTLLWFEHPAERFLIVTDEATANMLTDKLRGEAELNNSQQWLALNIEAGFPVIDAANSGQFIPQATNLQALGGISFKKGCYTGQEMVARAKFRGANKRALWLLAGSASRLPEAGEDLELKMGENWRRTGTVLAAVKLEDGQVVVQVVMNNDMEPDSIFRVRDDANTLHIEPLPYSLEE”, the protein production entry was “not failed”.

Turning to “MAFVRYIPCRKIPRNVDQFELPCLGSLRAFFSTQKLIGDEPVLVRDFIHTALYDPIQGYFSQRSKSVGVLERSIKFNQLEGRKAYMKLLEKVYKQSDISWFTPVELFKPWYAHGIAEAILRTTNLSVPLKGVLDYIMLNAPERIYKNMSYTSIEISPSLAKIQKETVAQVGSHLSKFRVECRDASDLAGWSKVLFVQHKADSGFQFPVAMLEFENVEQQPCWVIMLEVLDNLPHDLVYSKSQLSPWMEVLVENKPESEALSELYKPLEDPLIKRCIEIVEHEDDPKLLEVLHAKLPKMSLIASDFSFLPDVKVPGERAPLVSTKKDGCSSDYSSYLDAKGDADIFFPTDFWLLERMDHYCSGWRKMEKDGTPSKKGRKRRTLTVNQDSL”, the protein production entry is recorded as “failed”.

Consider “MAGAMIEARGLVKRFVSGRIRRRVVEALKGVSFSVYEGEIYSFLGPNGAGKTTTVRILSTLLDPDGGEARVAGFDVVKERWEVRKRIGVMLSVERGFYWKLTGRENLYYFGRIYGIPQGELKSRIKEVLDLVGLTDLGGADKPFEEMSLGMKARLGLARVLLKDPEVLILDEPTLGLDPASARTIRGVIRSLASEGRTIFITTHNMVEAEMISDRVGIIIGGRIAMEGTPDELKRRVFSSINLEFRVKASGHAAKKFFYDVKGEYGNRIVGGVTFSDGILTFRVSVNRDEPAEPIIDRITRLAYQYRFKILEIKALEPSLEDVFVAVSESGEARSGRVKGSIAQRLEHHHHHH”, for which the protein production entry is “not failed”.

For the sequence “MAGEQIKPVASGLLVLNFCMYVIVLGIGGWAMNRAIDHGFEVGPNLELPAHFSPIYFPMGNAATGFFVIFALLAGVVGAASTISGLSHIRSWTVGSLPAAATAATIAWTLTVLAMGFAWKEIELQGRNAKLRTMEAFLIILSVTQLIYIAAVHGVRRP”, the protein production result is listed as “failed”.

On to “MAGFISNFFGVGDSDSQYEEPTEASQAAAPTESATNTRSTPKVVPMQGGKSVNSKIALFEPKIYSDVKEIATQLLKNQAVIINFDHVDDEMARRIVDFLTGTVFAINGEIERIGDEIFLCIPENYEVSGSTTSQFDTSKLLEHHHHHH”, for which the protein production result was “not failed”.

Consider “MAGFPELVVLDPPWDKELAAGTESQALVSATPREDFRVRCTSKRAVTEMLQLCGRFVQKLGDALPEEIREPALRDAQWTFESAVQENISINGQAWQEASDNCFMDSDIKVLEDQFDEIIVDIATKRKQYPRKILECVIKTIKAKQEILKQYHPVVHPLDLKYDPDPAPHMENLKCRGETVAKEISEAMKSLPALIEQGEGFSQVLRMQPVIHLQRIHQEVFSSCHRKPDAKPENFITQIETTPTETASRKTSDVVLKRKQTKDCPQRKWYPLRPKKINLDT”, for which the protein production entry is given as “failed”.
